Source: patent US7655420B2, “Methods to increase or decrease bone density” (Celltech R & D, Inc., priority 2002, dated 2010)
Entries after “also recorded” stand apart in the source; their conditions may differ.

What was measured:
[1] = system: hMSC cells; assay: apoptosis of hMSC cells by TUNEL staining; assay type: cell-based, human; conditions: Sclerostin 20 μg/ml, 24 hrs
Description: Human mesenchymal (hMSC) cells were plated in Osteoblast-inducing media (Biowhittaker's MSCGM medium supplemented with 100 nM dexamethasone, 50 μg/ml ascorbic acid, and 10 mM β-glycerophosphate) at a density of 10,000 cells/cm^2 in 96-well dishes.
For apoptosis determination by TUNEL staining, cells were treated for 24 hrs with a partially purified preparation of bacculovirus-expressed human sclerostin (20 μg/ml) or an equal volume of a protein preparation purified from Sf9 conditioned media (control). Cells were fixed with paraformaldehyde and processed using Roche's In Situ Cell Death Detection kit.

[2] = system: alkaline phosphatase activity in primary human osteoblasts; assay: histochemical staining for alkaline phosphatase in primary human osteoblasts; assay type: cell-based; conditions: primary human osteoblasts in Inducing media, Sclerostin 20 μg/ml, 7 days
Description: Primary human osteoblasts were grown in regular growth media or in Inducing media (to promote differentiation) and then treated with Sclerostin (20 μg/ml) or Control (protein purified from Sf9 conditioned media) for 7 days prior to histochemical staining for alkaline phosphatase activity. Osteoblasts grown in regular growth media expressed low, basal levels of ALP (“No Treatment,” far right panel).

[3] = system: alkaline phosphatase (ALP) activity in hMSC cells; assay: alkaline phosphatase activity in differentiating hMSC cells; assay type: cell-based, human; conditions: for basal alkaline phosphatase activity, increasing concentrations (dose-dependent) / ALP activity: hMSC cells, Osteoblast-Inducing media; for ALP activity: 7 days
Description: (§1) hMSC cells were plated in 96-well tissue culture dishes at a density of 10,000 cells/cm^2 in Osteoblast-Inducing medium. Partially purified preparations of baculovirus-expressed sclerostin protein were prepared in sterile PBS using NAP-5 columns prior to use. Human sclerostin protein (0 to 30 μg/ml) or an equal volume of Sf9 conditioned media (Control) was added to cultures of hMSC cells at various times after plating (1 day, 8 days, 15 days, or 21 days). The effects of sclerostin on osteoblastic differentiation were assessed by measuring alkaline phosphatase activity (ALP, determined in cell layers using DEAA buffer (Pierce) containing 0.5% NP-40 and 10 mM p-nitrophenylphosphate), synthesis of collagen type I (Prolagen C ELISA), and calcium deposition for mineralization (colorimetric assay of acid lysates of cell layers, Sigma).

[4] = system: type I collagen synthesis in hMSC cells; assay: synthesis of collagen type I in hMSC cells (Prolagen C ELISA); assay type: cell-based, human
Description: FIG. 13 illustrates that partially purified preparations of human sclerostin reduce the synthesis of type I collagen by about 50% in cells treated with 10 μg/ml of sclerostin (p<0.001 to control). hMSC cells were cultured in Osteoblast-Inducing media and treated with partially-purified sclerostin protein or proteins purified from Sf9 conditioned media (Control) for 21 days. Sclerostin or Control at the indicated concentrations was added 8 days after plating.
as §1

B1: sclerostin: partially purified baculovirus-expressed human sclerostin protein, SOST gene product (SEQ ID NO:3); also made with a FLAG tag (protein, listed as Homo sapiens)
chain: MQLPLALCLVCLLVHTAFRVVEGQGWQAFKNDATEIIPELGEYPEPPPELENNKTMNRAENGGRPPHHPFETKDVSEYSCRELHFTRYVTDGPCRSAKPVTELVCSGQCGPARLLPNAIGRGKWWRPSGPDFRCIPDRYRAQRVQLLCPGGEAPRARKVRLVASCKCKRLTRFHNQSELKDFGTEAARPQKGRKPRPRARSAKANQAELENAY
modifications: optional FLAG tag
Tunel staining for apoptotic nuclei [1]: Increased staining for apoptotic nuclei | Tunel staining for apoptotic nuclei ([1]; listed as human sclerostin): undergo apoptosis | amount of ALP expressed (histochemical stain) [2]: marked decrease | decrease of alkaline phosphatase activity ([3]; hMSC cells treated with about 10 to 15 μg/ml of the protein, p<0.001 to control): about 50% | basal alkaline phosphatase activity, increasing concentrations (dose-dependent) [3]: significantly reduced; also recorded: decreased | ALP activity ([3]; protein at 1 μg/ml): decreased | ALP activity ([3]; protein at 5 μg/ml): decreased | basal alkaline phosphatase activity, increasing concentrations (dose-dependent) ([3]; listed as Sclerostin): decreased | basal alkaline phosphatase activity, increasing concentrations (dose-dependent) ([3]; listed as human sclerostin): decreases | reduction of synthesis of type I collagen ([4]; hMSC cells, 10 μg/ml of sclerostin, 21 days, p<0.001 to control): about 50% | synthesis of collagen type I, dose dependence ([4]; hMSC cultures): decreased in a dose-dependent manner
